Assay results as given in the Human Domainome abundance scans (Beltran et al. 2025).
± gives the uncertainty stated by the source.

B1: Ankyrin-1, residues 1405 to 1484; numbered along this chain, P16157 (parent)
chain: MKMAVISEHLGLSWAELARELQFSVEDINRIRVENPNSLLEQSVALLNLWVIREGQNANMENLYTALQSIDRGEIVNMLE

Variants of: B1
Assay: abundance fitness (aPCA) (normalised: wild type 0, dead -1); higher = more abundant; growth selection in yeast, the domain comes from the species named
Conditions: Homo sapiens
Variant R19C has an abundance fitness of -0.17 ± 0.077. With V44F the abundance fitness was 0.182 ± 0.086. A4D showed an abundance fitness of 0.159 ± 0.12. Variant N62D has an abundance fitness of 0.109 ± 0.11. In the case of A58Y, the abundance fitness is reported as -0.065 ± 0.22. Variant P36C has an abundance fitness of -0.069 ± 0.098. In the case of P36K, the abundance fitness is reported as -0.267 ± 0.16. With P36T the abundance fitness was -0.525 ± 0.15. Work on A15D yielded an abundance fitness of -0.209 ± 0.11. A15V showed an abundance fitness of 0.066 ± 0.047. With A15P the abundance fitness was -0.025 ± 0.1. Work on Y64T yielded an abundance fitness of -0.049 ± 0.1. N29V gave an abundance fitness of -0.213 ± 0.054. E54Y showed an abundance fitness of -0.357 ± 0.15. M60P showed an abundance fitness of -0.207 ± 0.18. Work on M60A yielded an abundance fitness of -0.343 ± 0.16. Work on L63A yielded an abundance fitness of -0.79 ± 0.2. With L63C the abundance fitness was -0.748 ± 0.3. Variant M78T has an abundance fitness of 0.085 ± 0.091. Variant M78V has an abundance fitness of 0.043 ± 0.061. In the case of M78W, the abundance fitness is reported as -0.19 ± 0.075. N57K gave an abundance fitness of -0.117 ± 0.11. R53V gave an abundance fitness of -0.847 ± 0.11. I70G showed an abundance fitness of -0.911 ± 0.11. I70S gave an abundance fitness of -0.604 ± 0.13. In the case of I70Y, the abundance fitness is reported as -0.152 ± 0.25. For T65F, the abundance fitness was -0.095 ± 0.083. T65S gave an abundance fitness of 0.001 ± 0.046. Variant V5Q has an abundance fitness of -0.483 ± 0.16. Work on V5N yielded an abundance fitness of -0.606 ± 0.24. With V5L the abundance fitness was 0.079 ± 0.052. L21S showed an abundance fitness of -0.645 ± 0.15. For L10G, the abundance fitness was -0.971 ± 0.21. S38R showed an abundance fitness of -0.478 ± 0.08. S38M gave an abundance fitness of -0.353 ± 0.12. Work on V33W yielded an abundance fitness of -0.073 ± 0.07. Work on E41V yielded an abundance fitness of -0.467 ± 0.067. With N35C the abundance fitness was -0.355 ± 0.22. N35L gave an abundance fitness of -0.491 ± 0.12. For N35R, the abundance fitness was -0.068 ± 0.11. With S69V the abundance fitness was 0.029 ± 0.044. Variant S69A has an abundance fitness of -0.045 ± 0.051. For S69N, the abundance fitness was -0.106 ± 0.11. Variant L17W has an abundance fitness of -0.636 ± 0.12. Work on L17S yielded an abundance fitness of -0.853 ± 0.14. Work on L17P yielded an abundance fitness of -0.881 ± 0.23. A66G gave an abundance fitness of -0.197 ± 0.048. With A66T the abundance fitness was -0.794 ± 0.13. Variant G55D has an abundance fitness of -0.1 ± 0.1. With A18P the abundance fitness was -0.912 ± 0.17. A18D showed an abundance fitness of -0.96 ± 0.23. For M3K, the abundance fitness was -0.155 ± 0.13. In the case of L79T, the abundance fitness is reported as -0.202 ± 0.096. Work on R32Q yielded an abundance fitness of -0.132 ± 0.066. R32T gave an abundance fitness of -0.141 ± 0.083. With L46I the abundance fitness was -0.446 ± 0.12. For G11K, the abundance fitness was -0.362 ± 0.17. G11D gave an abundance fitness of -0.171 ± 0.23. Variant H9C has an abundance fitness of 0.011 ± 0.1. Work on H9Y yielded an abundance fitness of -0.388 ± 0.13. E26S gave an abundance fitness of -0.071 ± 0.055. Work on F23C yielded an abundance fitness of -0.51 ± 0.16. In the case of S7I, the abundance fitness is reported as -0.396 ± 0.1. S24F gave an abundance fitness of -0.837 ± 0.36. In the case of S24L, the abundance fitness is reported as -0.776 ± 0.12. Variant Q56Y has an abundance fitness of -0.147 ± 0.17. Q56P showed an abundance fitness of -0.052 ± 0.08. Work on L49P yielded an abundance fitness of -0.81 ± 0.19. L49H gave an abundance fitness of -0.239 ± 0.12. Variant L49D has an abundance fitness of -0.196 ± 0.087. For L49E, the abundance fitness was -0.055 ± 0.078. For V76G, the abundance fitness was -0.566 ± 0.069. Variant V76W has an abundance fitness of -0.388 ± 0.044. Work on E34C yielded an abundance fitness of -0.257 ± 0.19. Work on E34Y yielded an abundance fitness of -0.565 ± 0.38. In the case of E34P, the abundance fitness is reported as -0.992 ± 0.49. For N37L, the abundance fitness was -0.199 ± 0.074. N37Q gave an abundance fitness of -0.444 ± 0.35. With L40G the abundance fitness was -0.286 ± 0.06. L40V showed an abundance fitness of 0.011 ± 0.052. For V51N, the abundance fitness was -0.159 ± 0.12. E74V showed an abundance fitness of -0.839 ± 0.15. L47P showed an abundance fitness of -0.654 ± 0.16.
